Laboratory results: ChEMBL document CHEMBL1156055, “Synthetic substrate for application in both high and low throughput assays for botulinum neurotoxin B protease inhibitors” (Bioorg Med Chem Lett, 2009)

Substrate: COc1ccc2c(CC(=O)NCCCC[C@H](NC(=O)CNC(=O)[C@H](C)NC(=O)[C@H](CCC(N)=O)NC(=O)[C@H](CC(C)C)NC(=O)[C@H](C)NC(=O)[C@H](CC(=O)O)NC(=O)[C@H](C)NC(=O)[C@H](CCCNC(=N)N)NC(=O)[C@H](CC(=O)O)NC(=O)[C@H](CC(=O)O)NC(=O)[C@H](CC(C)C)NC(=O)[C@H](CCC(=O)O)NC(=O)[C@H](CO)NC(=O)[C@H](CC(C)C)NC(=O)[C@H](CCCCN)NC(=O)[C@H](CCC(N)=O)NC(=O)[C@H](CC(=O)O)NC(=O)[C@H](CCCNC(=N)N)NC(=O)[C@H](CCC(=O)O)NC(C)=O)C(=O)N[C@@H](CO)C(=O)N[C@@H](CCC(N)=O)C(=O)N[C@@H](CNc3ccc([N+](=O)[O-])cc3[N+](=O)[O-])C(=O)N[C@@H](CCC(=O)O)C(=O)N[C@@H](CO)C(=O)N[C@@H](CO)C(=O)N[C@@H](C)C(=O)N[C@@H](C)C(=O)N[C@@H](CCCCN)C(=O)N[C@@H](CC(C)C)C(=O)N[C@@H](CCCCN)C(=O)N[C@@H](CCCNC(=N)N)C(=O)N[C@@H](CCCCN)C(=O)N[C@@H](Cc3ccc(O)cc3)C(=O)N[C@@H](Cc3c[nH]c4ccccc34)C(=O)N[C@@H](Cc3c[nH]c4ccccc34)C(=O)N[C@@H](CCCCN)C(=O)N[C@@H](CC(N)=O)C(=O)N[C@@H](CC(C)C)C(=O)N[C@@H](CCCCN)C(N)=O)cc(=O)oc2c1
Assay: Activity at Clostridium botulinum BoNT/B protease

B1: Botulinum neurotoxin type B (Clostridium botulinum), P10844 (protein)
chain: MPVTINNFNYNDPIDNNNIIMMEPPFARGTGRYYKAFKITDRIWIIPERYTFGYKPEDFNKSSGIFNRDVCEYYDPDYLNTNDKKNIFLQTMIKLFNRIKSKPLGEKLLEMIINGIPYLGDRRVPLEEFNTNIASVTVNKLISNPGEVERKKGIFANLIIFGPGPVLNENETIDIGIQNHFASREGFGGIMQMKFCPEYVSVFNNVQENKGASIFNRRGYFSDPALILMHELIHVLHGLYGIKVDDLPIVPNEKKFFMQSTDAIQAEELYTFGGQDPSIITPSTDKSIYDKVLQNFRGIVDRLNKVLVCISDPNININIYKNKFKDKYKFVEDSEGKYSIDVESFDKLYKSLMFGFTETNIAENYKIKTRASYFSDSLPPVKIKNLLDNEIYTIEEGFNISDKDMEKEYRGQNKAINKQAYEEISKEHLAVYKIQMCKSVKAPGICIDVDNEDLFFIADKNSFSDDLSKNERIEYNTQSNYIENDFPINELILDTDLISKIELPSENTESLTDFNVDVPVYEKQPAIKKIFTDENTIFQYLYSQTFPLDIRDISLTSSFDDALLFSNKVYSFFSMDYIKTANKVVEAGLFAGWVKQIVNDFVIEANKSNTMDKIADISLIVPYIGLALNVGNETAKGNFENAFEIAGASILLEFIPELLIPVVGAFLLESYIDNKNKIIKTIDNALTKRNEKWSDMYGLIVAQWLSTVNTQFYTIKEGMYKALNYQAQALEEIIKYRYNIYSEKEKSNINIDFNDINSKLNEGINQAIDNINNFINGCSVSYLMKKMIPLAVEKLLDFDNTLKKNLLNYIDENKLYLIGSAEYEKSKVNKYLKTIMPFDLSIYTNDTILIEMFNKYNSEILNNIILNLRYKDNNLIDLSGYGAKVEVYDGVELNDKNQFKLTSSANSKIRVTQNQNIIFNSVFLDFSVSFWIRIPKYKNDGIQNYIHNEYTIINCMKNNSGWKISIRGNRIIWTLIDINGKTKSVFFEYNIREDISEYINRWFFVTITNNLNNAKIYINGKLESNTDIKDIREVIANGEIIFKLDGDIDRTQFIWMKYFSIFNTELSQSNIEERYKIQSYSEYLKDFWGNPLMYNKEYYMFNAGNKNSYIKLKKDSPVGEILTRSKYNQNSKYINYRDLYIGEKFIIRRKSNSQSINDDIVRKEDYIYLDFFNLNQEWRVYTYKYFKKEEEKLFLAPISDSDEFYNTIQIKEYDEQPTYSCQLLFKKDEESTDEIGLIGIHRFYESGIVFEEYKDYFCISKWYLKEVKRKPYNLKLGCNWQFIPKDEGWTE
Km: 70.9 µM
kcat: 3.81 s⁻¹
